{"source": "patent US20200030425", "about": "(published 2020)", "binders": {"B1": {"name": "ICOS.33 IgG1f S267E Fab (antibody, V domains shown)", "VH": "EVQLVESGGGLVKPGGSLRLSCAASGFTFSDYFMHWVRQAPGKGLEWVGVIDTKSFNYATYYSDLVKGRFTISRDDSKNTLYLQMNSLKTEDTAVYYCTATIAVPYYFDYWGQGTLVTVSS", "VL": "DIQMTQSPSSLSASVGDRVTITCQASQDISNYLSWYQQKPGKAPKLLIYYTNLLAEGVPSRFSGSGSGTDFTFTISSLQPEDIATYYCQQYYNYRTFGPGTKVDIK"}}, "biological_target": "T1, human ICOS-Fc (human)", "T1 chain": "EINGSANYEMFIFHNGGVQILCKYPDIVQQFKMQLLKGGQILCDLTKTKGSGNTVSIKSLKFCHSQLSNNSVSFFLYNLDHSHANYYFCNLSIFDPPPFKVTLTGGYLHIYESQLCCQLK", "assay": "SPR 37C", "note": "Several values for one entry are separate records, joined by “and”; a condition that tells them apart may be missing. Equal values may be shown once."}
{"binder": "B1", "values": [{"measurement": "Kd", "value": "0.052 µM and 0.065 µM"}]}
